Measured values taken from ChEMBL document CHEMBL1132473.
Blank lines part the entries; values can stand above or below the compound they belong to.

Assays:
[1] = system: N[C@@H]1C=C[C@@H](C(=O)O)C1
[2] = system: N[C@H]1C=C[C@@H](C(=O)O)C1
[3] = system: N[C@@H]1C=C[C@H](C(=O)O)C1
Description: (§1) Compound was tested for the inhibition of Gamma-amino-N-butyrate transaminase (GABA-AT)

[4] = target: 4-aminobutyrate aminotransferase, mitochondrial (Sus scrofa) (UniProt P80147)
4-aminobutyrate aminotransferase, mitochondrial (Sus scrofa), sequence (P80147 whole entry): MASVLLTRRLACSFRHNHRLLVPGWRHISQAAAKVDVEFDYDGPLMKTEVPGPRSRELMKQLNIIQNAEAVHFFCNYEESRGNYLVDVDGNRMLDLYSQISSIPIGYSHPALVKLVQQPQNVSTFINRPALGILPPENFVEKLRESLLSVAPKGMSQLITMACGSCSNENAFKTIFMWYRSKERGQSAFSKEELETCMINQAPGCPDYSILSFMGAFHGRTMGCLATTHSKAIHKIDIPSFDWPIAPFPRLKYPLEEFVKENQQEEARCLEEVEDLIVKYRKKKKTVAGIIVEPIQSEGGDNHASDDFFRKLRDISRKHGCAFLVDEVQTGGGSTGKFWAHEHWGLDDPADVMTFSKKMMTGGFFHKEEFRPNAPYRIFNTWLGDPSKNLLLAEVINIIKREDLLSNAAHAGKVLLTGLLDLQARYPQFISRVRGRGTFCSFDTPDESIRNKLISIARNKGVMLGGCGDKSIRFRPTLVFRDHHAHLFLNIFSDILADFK
Description: as §1

4-aminobutyrate aminotransferase, mitochondrial (Sus scrofa), P80147, sequence (P80147 whole entry): as above
Description for NC1C=CC(C(=O)O)C1: as §1
Description for N[C@@H]1CC=C(C(=O)O)C1: as §1

Compound: 4-aminobutyrate aminotransferase, mitochondrial (Sus scrofa), P80147
Km [1]: No turn over | Km [2]: No turn over | Km (N[C@H]1CC=C(C(=O)O)C1): No turn over | Km [3]: 100 µM | Km (NC1C=CC(C(=O)O)C1): 2300 µM | Km (N[C@@H]1CC=C(C(=O)O)C1): 1600 µM

k cat [4]: 0.625 s⁻¹
Compound: N[C@@H]1CC=C(C(=O)O)C1

k cat [4]: 0.195 s⁻¹
Compound: N[C@@H]1C=C[C@H](C(=O)O)C1

k cat [4]: 0.667 s⁻¹
Compound: NC1C=CC(C(=O)O)C1 (racemic)
